This series deals with the molecule itself. In words: SEC; gel filtration of the purified native enzyme, buffer and standards not told. In general terms: SEC sorts molecules by how far they enter the pores of the column.

B1: D-psicose 3-epimerase from Clostridium scindens ATCC 35704 (hypothetical protein CLOSCI_02528) (enzyme, UniProt B0NGC5 1-289, looked up)
chain: MKHGIYYAYWEQEWAADYKRYVEKAAKLGFDILEVGAAPLPDYSAQEVKELKKCADDNGIQLTAGYGPAFNHNMGSSDPKIREEALQWYKRLFEVMAGLDIHLIGGALYSYWPVDFATANKEEDWKHSVEGMQILAPIASQYGINLGMEVLNRFESHILNTSEEGVKFVTEVGMDNVKVMLDTFHMNIEESSIGDAIRHAGKLLGHFHTGECNRMVPGKGRTPWREIGDALREIEYDGTVVMEPFVRMGGQVGSDIKVWRDISKGAGEDRLDEDARRAVEFQRYMLEWK
notes: D-psicose 3-epimerase (hypothetical protein CLOSCI_02528, protein ID ZP_02432283) of Clostridium scindens ATCC 35704; full-length synthetic gene cloned NdeI/XhoI into pET-22b(+); No removal of the C-terminal 6xhistidine tag is described; Metal-free after dialysis against EDTA; Subunit about 32 kDa by SDS-PAGE, native enzyme about 125 kDa by gel filtration; also called C. scindens DPEase; DPEase
Broadly, the stoichiometry N is the number of molecules, sites or subunits per partner or assembly. On to B1, for which the “stoichiometry N” value amounted to 4.

(Values after publication PMC3639893, “Characterization of a Novel Metal-Dependent D-Psicose 3-Epimerase from Clostridium scindens 35704” (PLoS ONE, 2013).)
